Data on two molecules can be found in publication PMC13615978.

Assay [1] deals with Sla2 IDR-CC-mScarlet (IDR, coiled-coil and REND regions) (S. cerevisiae) (UniProt P33338).
For assay [2] the target is unchanged. This is another data set of the same source.

Chain of UniProt P33338 (P33338 261-746): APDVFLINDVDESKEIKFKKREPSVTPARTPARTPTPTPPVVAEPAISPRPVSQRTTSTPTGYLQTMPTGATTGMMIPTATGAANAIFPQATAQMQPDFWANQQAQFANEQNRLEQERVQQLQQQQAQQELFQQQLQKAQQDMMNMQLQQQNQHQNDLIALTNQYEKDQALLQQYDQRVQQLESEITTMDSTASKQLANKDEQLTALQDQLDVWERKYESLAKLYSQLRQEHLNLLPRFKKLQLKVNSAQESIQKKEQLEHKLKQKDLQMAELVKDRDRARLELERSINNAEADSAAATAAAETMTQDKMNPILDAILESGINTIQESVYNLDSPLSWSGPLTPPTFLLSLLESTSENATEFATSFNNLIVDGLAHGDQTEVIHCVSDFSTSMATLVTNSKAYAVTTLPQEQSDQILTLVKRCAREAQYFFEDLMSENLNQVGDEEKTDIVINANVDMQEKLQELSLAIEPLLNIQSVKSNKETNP

With “"Clathrin" construct: full-length CLC and CHC distal leg (residues 1172-1572) heterodimer conjugated to mNeonGreen (from UniProt P17891 1-233; P22137 1172-1572) (complex)”, in assay [1], the ID/IS of Clathrin (green channel) with Sla2 IDR-CC-mScarlet droplets, 2.5% (w/v) PEG 8000 was found to be 3.6 and the ID/IS of Sla2 IDR-CC-mScarlet (magenta channel) in the presence of Clathrin, 2.5% (w/v) PEG 8000 is 6.9.

B1: Ede1 IDR-CC (residues 366-900) tagged with mEGFP (domain or fragment)
chain: GLYPPNPLPQQQSAPQIAIPSRASKPSLQDMPHQVSAPAVNTQPTVPQVLPQNSNNGSLNDLLALNPSFSSPSPTKAQTVVQNNTNNSFSYDNNNGQATLQQQQPQQPPPLTHSSSGLKKFTPTSNFGQSIIKEEPEEQEQLRESSDTFSAQPPPVPKHASSPVKRTASTTLPQVPNFSVFSMPAGAATSAATGAAVGAAVGAAALGASAFSRSSNNAFKNQDLFADGEASAQLSNATTEMANLSNQVNSLSKQASITNDKKSRATQELKRVTEMKNSIQIKLNNLRSTHDQNVKQTEQLEAQVLQVNKENETLAQQLAVSEANYHAAESKLNELTTDLQESQTKNAELKEQITNLNSMTASLQSQLNEKQQQVKQERSMVDVNSKQLELNQVTVANLQKEIDGLGEKISVYLTKQKELNDYQKTVEEQHAQLQAKYQDLSNKDTDLTDREKQLEERNRQIEEQENLYHQHVSKLQEMFDDLSQRKASFEKADQELKERNIEYANNVRELSERQMNLAMGQLPEDAKDIIAKSAS
Turning to B1, in assay [2], the ID/IS of 20 µM Sla2 IDR-CC when mixed with 45 µM Ede1 IDR-CC (4.7 for Sla2 IDR-CC alone), 2.5% (w/v) PEG 8000 stood at 7.8 and the droplet-to-solution intensity ratio (ID/IS) of 5 µM Ede1 IDR-CC in condensates of 20 µM Sla2 IDR-CC, 2.5% (w/v) PEG 8000 was determined as 4.
